{"source": "the supplement of paper PMC10567573", "parents": {"B1": {"name": "PCDHGA10 (parent)", "chain": "FHELQMQVTASDSGDPPLSSNVSL"}, "B2": {"name": "PPFIA4 (parent)", "chain": "PGVHRRYSALREESAKDWETSPLP"}}, "data": [{"variants_of": "B1", "test": "protein stability index of a GFP-peptide fusion (GPS, HEK-293T) (PSI 1-6); higher = more stable", "settings": "c terminus: a fixed tail appended", "values": [{"variant": "FHELQMQVTASDSGDPPLSSNVCL", "note": "[S23C]", "protein stability index": 1.72}, {"variant": "FHELQMQVTASDSGDPPLSSNVQL", "note": "[S23Q]", "protein stability index": 2.1}, {"variant": "FHELQMQVTASDSGDPPLSSNVML", "note": "[S23M]", "protein stability index": 2.15}, {"variant": "FHELQMQVTASDSGDPPLSSNVDL", "note": "[S23D]", "protein stability index": 3.16}, {"variant": "FHELQMQVTASDSGDPPLSSNVGL", "note": "[S23G]", "protein stability index": 2.01}, {"variant": "FHELQMQVTASDSGDPPLSSNVVL", "note": "[S23V]", "protein stability index": 2.05}, {"variant": "FHELQMQVTASDSGDPPLSSNVTL", "note": "[S23T]", "protein stability index": 2.18}, {"variant": "FHELQMQVTASDSGDPPLSSNVLL", "note": "[S23L]", "protein stability index": 2.05}, {"variant": "FHELQMQVTASDSGDPPLSSNVKL", "note": "[S23K]", "protein stability index": 2.84}, {"variant": "FHELQMQVTASDSGDPPLSSNVFL", "note": "[S23F]", "protein stability index": 2.39}, {"variant": "FHELQMQVTASDSGDPPLSSNVIL", "note": "[S23I]", "protein stability index": 1.89}, {"variant": "FHELQMQVTASDSGDPPLSSNVEL", "note": "[S23E]", "protein stability index": 3.33}, {"variant": "FHELQMQVTASDSGDPPLSSNVRL", "note": "[S23R]", "protein stability index": 2.51}, {"variant": "FHELQMQVTASDSGDPPLSSNVWL", "note": "[S23W]", "protein stability index": 2.08}, {"variant": "FHELQMQVTASDSGDPPLSSNVAL", "note": "[S23A]", "protein stability index": 2.15}, {"variant": "FHELQMQVTASDSGDPPLSSNVYL", "note": "[S23Y]", "protein stability index": 1.75}, {"variant": "FHELQMQVTASDSGDPPLSSNVNL", "note": "[S23N]", "protein stability index": 2.46}, {"variant": "FHELQMQVTASDSGDPPLSSNVPL", "note": "[S23P]", "protein stability index": 2.82}, {"variant": "FHELQMQVTASDSGDPPLSSNVHL", "note": "[S23H]", "protein stability index": 2.14}]}, {"variants_of": "B2", "test": "protein stability index of a GFP-peptide fusion (GPS, HEK-293T) (PSI 1-6); higher = more stable", "settings": "c terminus: a fixed tail appended", "values": [{"variant": "PGVWRRYSALREESAKDWETSPLP", "note": "[H4W]", "protein stability index": 3.15}, {"variant": "PGVIRRYSALREESAKDWETSPLP", "note": "[H4I]", "protein stability index": 4.14}, {"variant": "PGVERRYSALREESAKDWETSPLP", "note": "[H4E]", "protein stability index": 4.53}, {"variant": "PGVNRRYSALREESAKDWETSPLP", "note": "[H4N]", "protein stability index": 4.52}, {"variant": "PGVVRRYSALREESAKDWETSPLP", "note": "[H4V]", "protein stability index": 3.8}, {"variant": "PGVYRRYSALREESAKDWETSPLP", "note": "[H4Y]", "protein stability index": 4.81}, {"variant": "PGVMRRYSALREESAKDWETSPLP", "note": "[H4M]", "protein stability index": 4.49}, {"variant": "PGVCRRYSALREESAKDWETSPLP", "note": "[H4C]", "protein stability index": 2.79}, {"variant": "PGVDRRYSALREESAKDWETSPLP", "note": "[H4D]", "protein stability index": 4.37}, {"variant": "PGVRRRYSALREESAKDWETSPLP", "note": "[H4R]", "protein stability index": 3.42}, {"variant": "PGVARRYSALREESAKDWETSPLP", "note": "[H4A]", "protein stability index": 4.25}, {"variant": "PGVLRRYSALREESAKDWETSPLP", "note": "[H4L]", "protein stability index": 3.77}, {"variant": "PGVPRRYSALREESAKDWETSPLP", "note": "[H4P]", "protein stability index": 4.33}, {"variant": "PGVTRRYSALREESAKDWETSPLP", "note": "[H4T]", "protein stability index": 4.36}, {"variant": "PCVHRRYSALREESAKDWETSPLP", "note": "[G2C]", "protein stability index": 3.42}, {"variant": "PNVHRRYSALREESAKDWETSPLP", "note": "[G2N]", "protein stability index": 4.5}, {"variant": "PTVHRRYSALREESAKDWETSPLP", "note": "[G2T]", "protein stability index": 4.67}, {"variant": "PKVHRRYSALREESAKDWETSPLP", "note": "[G2K]", "protein stability index": 3.98}, {"variant": "PRVHRRYSALREESAKDWETSPLP", "note": "[G2R]", "protein stability index": 4.11}, {"variant": "PIVHRRYSALREESAKDWETSPLP", "note": "[G2I]", "protein stability index": 4.51}, {"variant": "PMVHRRYSALREESAKDWETSPLP", "note": "[G2M]", "protein stability index": 3.62}, {"variant": "PVVHRRYSALREESAKDWETSPLP", "note": "[G2V]", "protein stability index": 4.16}, {"variant": "PYVHRRYSALREESAKDWETSPLP", "note": "[G2Y]", "protein stability index": 4.08}, {"variant": "PHVHRRYSALREESAKDWETSPLP", "note": "[G2H]", "protein stability index": 3.18}, {"variant": "PSVHRRYSALREESAKDWETSPLP", "note": "[G2S]", "protein stability index": 4.28}, {"variant": "PQVHRRYSALREESAKDWETSPLP", "note": "[G2Q]", "protein stability index": 4.43}, {"variant": "PWVHRRYSALREESAKDWETSPLP", "note": "[G2W]", "protein stability index": 4.36}, {"variant": "PDVHRRYSALREESAKDWETSPLP", "note": "[G2D]", "protein stability index": 4.4}, {"variant": "PAVHRRYSALREESAKDWETSPLP", "note": "[G2A]", "protein stability index": 3.85}, {"variant": "EGVHRRYSALREESAKDWETSPLP", "note": "[P1E]", "protein stability index": 3.49}, {"variant": "NGVHRRYSALREESAKDWETSPLP", "note": "[P1N]", "protein stability index": 3.88}, {"variant": "VGVHRRYSALREESAKDWETSPLP", "note": "[P1V]", "protein stability index": 3.74}, {"variant": "FGVHRRYSALREESAKDWETSPLP", "note": "[P1F]", "protein stability index": 3.63}, {"variant": "TGVHRRYSALREESAKDWETSPLP", "note": "[P1T]", "protein stability index": 4.16}, {"variant": "HGVHRRYSALREESAKDWETSPLP", "note": "[P1H]", "protein stability index": 4.36}, {"variant": "YGVHRRYSALREESAKDWETSPLP", "note": "[P1Y]", "protein stability index": 4.17}, {"variant": "GGVHRRYSALREESAKDWETSPLP", "note": "[P1G]", "protein stability index": 4.03}, {"variant": "IGVHRRYSALREESAKDWETSPLP", "note": "[P1I]", "protein stability index": 4.16}, {"variant": "AGVHRRYSALREESAKDWETSPLP", "note": "[P1A]", "protein stability index": 3.5}, {"variant": "KGVHRRYSALREESAKDWETSPLP", "note": "[P1K]", "protein stability index": 4.41}, {"variant": "QGVHRRYSALREESAKDWETSPLP", "note": "[P1Q]", "protein stability index": 4.18}, {"variant": "LGVHRRYSALREESAKDWETSPLP", "note": "[P1L]", "protein stability index": 3.11}, {"variant": "CGVHRRYSALREESAKDWETSPLP", "note": "[P1C]", "protein stability index": 2.65}, {"variant": "DGVHRRYSALREESAKDWETSPLP", "note": "[P1D]", "protein stability index": 3.93}, {"variant": "MGVHRRYSALREESAKDWETSPLP", "note": "[P1M]", "protein stability index": 3.51}, {"variant": "PGHHRRYSALREESAKDWETSPLP", "note": "[V3H]", "protein stability index": 4.44}, {"variant": "PGEHRRYSALREESAKDWETSPLP", "note": "[V3E]", "protein stability index": 4.33}, {"variant": "PGTHRRYSALREESAKDWETSPLP", "note": "[V3T]", "protein stability index": 4.7}, {"variant": "PGGHRRYSALREESAKDWETSPLP", "note": "[V3G]", "protein stability index": 4.84}, {"variant": "PGRHRRYSALREESAKDWETSPLP", "note": "[V3R]", "protein stability index": 4.33}, {"variant": "PGCHRRYSALREESAKDWETSPLP", "note": "[V3C]", "protein stability index": 4.08}, {"variant": "PGQHRRYSALREESAKDWETSPLP", "note": "[V3Q]", "protein stability index": 4.42}, {"variant": "PGDHRRYSALREESAKDWETSPLP", "note": "[V3D]", "protein stability index": 4.89}, {"variant": "PGMHRRYSALREESAKDWETSPLP", "note": "[V3M]", "protein stability index": 5.03}, {"variant": "PGNHRRYSALREESAKDWETSPLP", "note": "[V3N]", "protein stability index": 4.45}, {"variant": "PGYHRRYSALREESAKDWETSPLP", "note": "[V3Y]", "protein stability index": 3.55}, {"variant": "PGFHRRYSALREESAKDWETSPLP", "note": "[V3F]", "protein stability index": 4.02}, {"variant": "PGPHRRYSALREESAKDWETSPLP", "note": "[V3P]", "protein stability index": 4.6}, {"variant": "PGLHRRYSALREESAKDWETSPLP", "note": "[V3L]", "protein stability index": 3.66}, {"variant": "PGSHRRYSALREESAKDWETSPLP", "note": "[V3S]", "protein stability index": 3.89}, {"variant": "PGVHSRYSALREESAKDWETSPLP", "note": "[R5S]", "protein stability index": 4.58}, {"variant": "PGVHFRYSALREESAKDWETSPLP", "note": "[R5F]", "protein stability index": 3.99}, {"variant": "PGVHPRYSALREESAKDWETSPLP", "note": "[R5P]", "protein stability index": 4.54}, {"variant": "PGVHCRYSALREESAKDWETSPLP", "note": "[R5C]", "protein stability index": 2.68}, {"variant": "PGVHWRYSALREESAKDWETSPLP", "note": "[R5W]", "protein stability index": 3.81}, {"variant": "PGVHLRYSALREESAKDWETSPLP", "note": "[R5L]", "protein stability index": 3.99}, {"variant": "PGVHVRYSALREESAKDWETSPLP", "note": "[R5V]", "protein stability index": 3.67}, {"variant": "PGVHARYSALREESAKDWETSPLP", "note": "[R5A]", "protein stability index": 4.86}, {"variant": "PGVHMRYSALREESAKDWETSPLP", "note": "[R5M]", "protein stability index": 4.71}, {"variant": "PGVHTRYSALREESAKDWETSPLP", "note": "[R5T]", "protein stability index": 3.91}, {"variant": "PGVHDRYSALREESAKDWETSPLP", "note": "[R5D]", "protein stability index": 5.06}, {"variant": "PGVHHRYSALREESAKDWETSPLP", "note": "[R5H]", "protein stability index": 4.27}, {"variant": "PGVHGRYSALREESAKDWETSPLP", "note": "[R5G]", "protein stability index": 3.96}, {"variant": "PGVHKRYSALREESAKDWETSPLP", "note": "[R5K]", "protein stability index": 4.34}, {"variant": "PGVHQRYSALREESAKDWETSPLP", "note": "[R5Q]", "protein stability index": 4.6}]}]}
